Columns and labels:
fak1_chick PTK2 = fak1_chick PTK2 (UniProt Q00944)
Sequence of fak1_chick PTK2 (Q00944 whole entry): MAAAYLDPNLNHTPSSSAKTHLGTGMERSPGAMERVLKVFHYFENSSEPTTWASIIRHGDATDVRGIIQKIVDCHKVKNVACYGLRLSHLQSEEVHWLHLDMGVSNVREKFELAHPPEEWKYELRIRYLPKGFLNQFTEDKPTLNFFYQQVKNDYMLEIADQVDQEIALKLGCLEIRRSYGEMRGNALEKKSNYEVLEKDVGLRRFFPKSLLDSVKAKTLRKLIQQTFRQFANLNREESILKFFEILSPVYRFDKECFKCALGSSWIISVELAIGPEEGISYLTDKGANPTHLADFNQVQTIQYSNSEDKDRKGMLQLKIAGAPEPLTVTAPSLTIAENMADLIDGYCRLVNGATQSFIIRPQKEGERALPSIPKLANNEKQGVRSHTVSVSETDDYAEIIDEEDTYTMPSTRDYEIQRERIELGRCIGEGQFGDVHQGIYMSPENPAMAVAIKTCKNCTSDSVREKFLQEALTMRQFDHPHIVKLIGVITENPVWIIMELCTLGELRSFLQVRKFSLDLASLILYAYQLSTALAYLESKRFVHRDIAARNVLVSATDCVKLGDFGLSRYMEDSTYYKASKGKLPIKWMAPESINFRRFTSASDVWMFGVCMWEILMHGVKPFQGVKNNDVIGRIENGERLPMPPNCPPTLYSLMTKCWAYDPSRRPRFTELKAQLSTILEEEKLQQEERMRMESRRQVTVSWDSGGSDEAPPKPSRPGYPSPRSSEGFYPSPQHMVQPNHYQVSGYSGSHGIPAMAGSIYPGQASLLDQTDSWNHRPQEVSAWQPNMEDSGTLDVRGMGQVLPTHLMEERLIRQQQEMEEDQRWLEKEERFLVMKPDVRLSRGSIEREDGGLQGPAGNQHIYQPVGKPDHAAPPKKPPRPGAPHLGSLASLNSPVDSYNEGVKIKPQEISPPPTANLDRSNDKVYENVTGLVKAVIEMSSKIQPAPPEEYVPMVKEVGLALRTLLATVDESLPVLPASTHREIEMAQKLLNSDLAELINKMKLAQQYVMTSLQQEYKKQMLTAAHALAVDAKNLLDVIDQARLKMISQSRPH

Sequence of VCL, P12003-1 (P12003 other isoform, or with tags, fused parts or gaps): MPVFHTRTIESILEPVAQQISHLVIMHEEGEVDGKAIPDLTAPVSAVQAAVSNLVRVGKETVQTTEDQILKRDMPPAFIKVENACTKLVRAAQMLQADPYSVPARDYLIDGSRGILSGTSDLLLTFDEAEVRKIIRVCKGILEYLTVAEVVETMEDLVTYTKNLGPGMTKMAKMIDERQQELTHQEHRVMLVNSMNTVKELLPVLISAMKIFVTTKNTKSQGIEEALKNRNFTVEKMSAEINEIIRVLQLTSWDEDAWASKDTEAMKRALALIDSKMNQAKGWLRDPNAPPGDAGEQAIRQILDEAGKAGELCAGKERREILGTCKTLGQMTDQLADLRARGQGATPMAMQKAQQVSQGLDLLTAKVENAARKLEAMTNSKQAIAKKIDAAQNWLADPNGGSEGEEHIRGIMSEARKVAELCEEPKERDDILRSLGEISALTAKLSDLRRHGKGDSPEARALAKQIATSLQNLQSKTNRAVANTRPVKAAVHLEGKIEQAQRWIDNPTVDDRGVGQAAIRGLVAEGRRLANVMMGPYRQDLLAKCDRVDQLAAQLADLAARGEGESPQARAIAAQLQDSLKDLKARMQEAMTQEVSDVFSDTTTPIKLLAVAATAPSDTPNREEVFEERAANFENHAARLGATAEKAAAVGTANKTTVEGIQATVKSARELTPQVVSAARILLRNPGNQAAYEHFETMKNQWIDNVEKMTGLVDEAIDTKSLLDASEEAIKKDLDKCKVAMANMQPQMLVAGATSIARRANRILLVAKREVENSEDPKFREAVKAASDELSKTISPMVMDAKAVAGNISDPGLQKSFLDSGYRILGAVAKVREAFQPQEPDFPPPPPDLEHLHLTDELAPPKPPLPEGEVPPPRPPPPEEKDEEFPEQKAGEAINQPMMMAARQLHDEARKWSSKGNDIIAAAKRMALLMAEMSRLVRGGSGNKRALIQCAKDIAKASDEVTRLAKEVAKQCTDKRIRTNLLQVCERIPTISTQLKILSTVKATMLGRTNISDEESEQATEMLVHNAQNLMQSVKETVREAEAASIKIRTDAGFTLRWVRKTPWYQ
Sequence of Paxillin (Gallus gallus (Chicken)), P49024 D146N;R147Q (P49024 whole entry D146N/R147Q): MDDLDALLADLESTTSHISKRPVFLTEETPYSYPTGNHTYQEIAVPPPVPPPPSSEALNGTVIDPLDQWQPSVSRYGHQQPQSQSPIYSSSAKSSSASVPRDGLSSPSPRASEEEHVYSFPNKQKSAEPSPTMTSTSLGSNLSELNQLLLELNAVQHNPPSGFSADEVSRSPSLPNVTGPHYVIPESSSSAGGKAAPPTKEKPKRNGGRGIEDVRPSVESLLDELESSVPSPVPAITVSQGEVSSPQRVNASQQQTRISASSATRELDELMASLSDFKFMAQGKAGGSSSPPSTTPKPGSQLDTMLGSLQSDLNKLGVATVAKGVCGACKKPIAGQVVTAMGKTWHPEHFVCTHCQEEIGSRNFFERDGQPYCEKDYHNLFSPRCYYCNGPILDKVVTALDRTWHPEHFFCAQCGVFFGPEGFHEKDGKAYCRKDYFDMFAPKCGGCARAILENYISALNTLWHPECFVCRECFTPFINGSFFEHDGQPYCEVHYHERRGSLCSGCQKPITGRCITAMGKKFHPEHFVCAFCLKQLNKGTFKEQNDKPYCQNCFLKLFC
Sequence of Paxillin (Gallus gallus (Chicken)), P49024 E151Q (P49024 whole entry E151Q): as the sequence (P49024 whole entry D146N/R147Q) above, with N146D, Q147R, E151Q counted along it

Row | effect of a mutation on the interaction (VCL, P12003-1) | effect of a mutation on the interaction (fak1_chick PTK2) | Substance
1 | decreasing interaction | – | Paxillin (Gallus gallus (Chicken)), P49024 E151Q
2 | decreasing interaction | decreasing interaction | Paxillin (Gallus gallus (Chicken)), P49024 D146N;R147Q

Source: IntAct's records for PubMed 8922390
